Laboratory results reported in publication PMC4673497.

T1: His-FLP (FOUR LIPS, MYB124) (UniProt Q94FL6 1-436)
T1 sequence: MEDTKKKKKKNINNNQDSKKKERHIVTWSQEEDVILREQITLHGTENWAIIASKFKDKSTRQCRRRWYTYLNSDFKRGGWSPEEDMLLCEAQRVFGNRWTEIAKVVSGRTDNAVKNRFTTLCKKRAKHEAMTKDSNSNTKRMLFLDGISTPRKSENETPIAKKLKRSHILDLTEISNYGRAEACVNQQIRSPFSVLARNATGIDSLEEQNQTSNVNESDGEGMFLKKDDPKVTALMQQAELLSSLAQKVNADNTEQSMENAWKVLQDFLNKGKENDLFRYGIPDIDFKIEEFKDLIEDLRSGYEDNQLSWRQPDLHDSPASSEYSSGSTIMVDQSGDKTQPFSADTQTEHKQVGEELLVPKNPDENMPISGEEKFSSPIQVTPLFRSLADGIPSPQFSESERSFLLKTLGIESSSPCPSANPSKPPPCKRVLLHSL

T2: His-MYB88 (UniProt F4IRB4 1-484)
T2 sequence: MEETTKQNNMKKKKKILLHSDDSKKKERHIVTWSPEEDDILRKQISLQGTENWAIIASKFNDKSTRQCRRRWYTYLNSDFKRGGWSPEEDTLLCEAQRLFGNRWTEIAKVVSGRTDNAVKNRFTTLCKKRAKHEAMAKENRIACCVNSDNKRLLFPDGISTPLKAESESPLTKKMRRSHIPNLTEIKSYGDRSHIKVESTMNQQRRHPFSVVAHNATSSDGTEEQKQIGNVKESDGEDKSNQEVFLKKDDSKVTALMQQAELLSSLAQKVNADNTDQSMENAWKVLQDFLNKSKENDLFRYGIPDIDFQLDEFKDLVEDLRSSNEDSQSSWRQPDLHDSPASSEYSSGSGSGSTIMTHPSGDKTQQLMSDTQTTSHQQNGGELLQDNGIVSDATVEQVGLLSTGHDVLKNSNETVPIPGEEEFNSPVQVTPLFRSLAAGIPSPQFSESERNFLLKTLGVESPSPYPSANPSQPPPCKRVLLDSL

B1: Probe-1086 (neighbour element -1080 replaced with A) (dsDNA)
DNA 1: CTTCTAGGAAAAAACAATTCTTGATACGGTAAAAAAAAGATCTTGATAACATTGTGACT
DNA 2: AGTCACAATGTTATCAAGATCTTTTTTTTACCGTATCAAGAATTGTTTTTTCCTAGAAG
B2: Probe-1007 (dsDNA)
DNA 1: CATAAGGTATTCTTTTACACTAATACTTTCCCGACAACAACAACGAAAAACTCCAACCT
DNA 2: AGGTTGGAGTTTTTCGTTGTTGTTGTCGGGAAAGTATTAGTGTAAAAGAATACCTTATG
B3: Probe-902 (dsDNA)
DNA 1: TATTTAACTATTGCTTTTTTGATTATTAGCCGGGGTACCAAGATATTAGTTTTTAATTT
DNA 2: AAATTAAAAACTAATATCTTGGTACCCCGGCTAATAATCAAAAAAGCAATAGTTAAATA
B4: Probe-1080 (neighbour element -1086 replaced with A) (dsDNA)
DNA 1: CTTCTAGGAAAAAACAATTCTTGAAAAAATCGCGGAAAGATCTTGATAACATTGTGACT
DNA 2: AGTCACAATGTTATCAAGATCTTTCCGCGATTTTTTCAAGAATTGTTTTTTCCTAGAAG
B5: Probe-473 (dsDNA)
DNA 1: TTATGTGTATGTTGTTATCTACAATATGTCCGTTTCAATCAGTCGAACAAAAAATACTA
DNA 2: TAGTATTTTTTGTTCGACTGATTGAAACGGACATATTGTAGATAACAACATACACATAA
B6: Probe-863 (dsDNA)
DNA 1: AAGATATTAGTTTTTAATTTAGTAATATACCCATATGTTTAATATTGATATCGATATTG
DNA 2: CAATATCGATATCAATATTAAACATATGGGTATATTACTAAATTAAAAACTAATATCTT
B7: Probe-1386 (neighbour element -1392 replaced with A) (dsDNA)
DNA 1: AATGTGTAATTGTCAAGAGGGATAAAAAAACGCGGATGAATCGAAGAAGCAATTGCTTT
DNA 2: AAAGCAATTGCTTCTTCGATTCATCCGCGTTTTTTTATCCCTCTTGACAATTACACATT
B8: Probe-1392 (neighbour element -1386 replaced with A) (dsDNA)
DNA 1: AATGTGTAATTGTCAAGAGGGATAAACCGAAAAAAATGAATCGAAGAAGCAATTGCTTT
DNA 2: AAAGCAATTGCTTCTTCGATTCATTTTTTTCGGTTTATCCCTCTTGACAATTACACATT

What was measured:
[1] = target: T1, His-FLP (FOUR LIPS, MYB124); assay: EMSA; 1x binding buffer (LightShift kit), 2.5% glycerol, 50 mM KCl, 5 mM MgCl2, 0.05% NP-40, 10 mM EDTA, room temperature, 20 min; pH not stated
His-MYB88 = target: T2, His-MYB88; assay: as above

| Binder | binding result [1] | binding result (His-MYB88) |
| --- | --- | --- |
| B1 | binds | – |
| B2 | no binding | – |
| B3 | binds | binds |
| B4 | binds | – |
| B5 | no binding | – |
| B6 | no binding | – |
| B7 | binds | binds |
| B8 | binds | binds |
